In general, stoichiometry N refers to the number of molecules, sites or subunits per partner or assembly.

These results are taken from article PMC3736172 (Scientific Reports, 2013).

One data set deals with T1, SPase (Rhodopirellula baltica, UniProt Q7UIS9).
T1 sequence (Q7UIS9 1-571): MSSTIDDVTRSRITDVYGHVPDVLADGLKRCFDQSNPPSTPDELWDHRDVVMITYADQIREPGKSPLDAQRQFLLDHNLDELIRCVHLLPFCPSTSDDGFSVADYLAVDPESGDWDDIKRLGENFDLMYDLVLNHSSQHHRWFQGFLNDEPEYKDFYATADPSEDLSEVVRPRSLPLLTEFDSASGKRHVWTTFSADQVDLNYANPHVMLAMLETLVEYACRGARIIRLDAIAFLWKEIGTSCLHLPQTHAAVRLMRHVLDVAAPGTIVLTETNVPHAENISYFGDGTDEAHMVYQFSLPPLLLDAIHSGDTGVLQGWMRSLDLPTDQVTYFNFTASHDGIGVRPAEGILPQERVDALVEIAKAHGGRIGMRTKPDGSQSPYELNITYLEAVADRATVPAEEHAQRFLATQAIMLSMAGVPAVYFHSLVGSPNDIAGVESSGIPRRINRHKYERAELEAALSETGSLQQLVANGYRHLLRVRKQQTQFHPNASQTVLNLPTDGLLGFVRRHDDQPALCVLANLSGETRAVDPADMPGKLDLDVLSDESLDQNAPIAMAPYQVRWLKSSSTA
The experiment in a line: turnover to fructose and glucose-1-phosphate. Type of data set: cell-based. The settings on record: recombinant enzyme.

Data set [1] concerns the molecule itself. The experiment in a line: SEC. A general note: In gel filtration, larger molecules generally elute earlier.
Data set [2] concerns the molecule itself. Nature of the data set: SEC. This is another data set of the same source.

Read-outs that look alike come from different tables or passages of the source.

On to `OC[C@H]1O[C@@](CO)(O[C@H]2O[C@H](CO)[C@@H](O)[C@H](O)[C@H]2O)[C@@H](O)[C@@H]1O` [sucrose], for which the “turnover to fructose and glucose-1-phosphate” value on SPase was “it catalyzed the conversion of sucrose to fructose and glucose-1-phosphate”.

B1: glucosyl-3-phosphoglycerate synthase (GpgS) from Rhodopirellula baltica, recombinant 398-amino acid enzyme (enzyme)
chain: PDFYQHDMITTIHDLRSAKLDNLESMLRESTRNHDIGLVLPVTASDMRAEPFDVIVRELAQADYIASIVVSLGVAPDQSDYDETCAKIAPLGDRAKVLWTDGPEVQGLYNELIESGIDVSVPGKGRSVWTAFGYLLDDPDIETFVLHDCDIVDYDRQLLTRLCLPMVHPGLDFEFCKAYYARVTDRMHGRVVRLLVAPLLRALMQCFPENQFVRFLGNFRYPLSGEFSLTRNLARTNRVASDWGLEVGTLADVYRNTSHKRVCQVDLARLYEHKHQTLAVDQPSSGLIKMALDILTTIYRTLASQGIVFGESTFVTLRASFLRIAQDCIRQYAADARVNSLKYDRHSEEMAIEAFAQCVTQAGEIFAADPSGNPSIPNWTRVRAAFPDFTSRLRETVK
Regarding B1, the “stoichiometry N” value in the data set “SEC [1]” was found to be 5.

B2: mannosylglucosyl-3-phosphoglycerate synthase (MggA) from Rhodopirellula baltica, recombinant (enzyme)
chain: MKISAMKILIVHCHFERGGVTQVVDNHVHCLQGSDEIDEVALVSGPRQSGLQETTRSSASIWRIASLEYDSLRDTSLNVDEQAQNDKQAQHTAREIDERCRQAGWTRQETVVHWHNHSLGKNAASPLVIKHLADFGYSCLLQIHDFAEDQRPQNWAYLKQSHGCEKASELDAILYPHGDRLSYATLTTGDAETLVQFGIHRSRVDVLPNSVRLPTDELPEFEVATHKVQRAFDLPADFRWMLYPVRGIRRKNLGEFLLMCQLAGRPTIGAMTLMPDTPMEKRSYERWQAVAERCVENVVFNAAHHEDIQFVDNLSAASVVVSSSVAEGFGMVFLEPWLASRSVVARNLPGVTGDFINHGMRLEHLYDAVQIPGSHSWLTEANRQFQNAKTDAWKDVRRDVETALSPSASDQSISDANEWIDFARLTPAMQIEVLVRFNTDSGFAKEVRDRNAALCDALVTDARPEIIDYNRNIVAANFGPENQKQQLLNAYRKAISNESIPGTGVQNDQTMLELVENSRPFYPCRVEQLD
Turning to B2, the “stoichiometry N” value in “SEC [2]” amounted to 2.
